# According to patent US20100129344A1, “MEDICAL USES AND THERAPIES BASED UPON THE ACTION OF AZUROCIDIN ON IGFBP-1” (priority 2005, published 2010):
# T1: IGFBP-1 (Homo sapiens, UniProt P08833)
# T1 construct: purchased Kabi Pharmacia (Sweden), donated
# T1 sequence (P08833 26-259): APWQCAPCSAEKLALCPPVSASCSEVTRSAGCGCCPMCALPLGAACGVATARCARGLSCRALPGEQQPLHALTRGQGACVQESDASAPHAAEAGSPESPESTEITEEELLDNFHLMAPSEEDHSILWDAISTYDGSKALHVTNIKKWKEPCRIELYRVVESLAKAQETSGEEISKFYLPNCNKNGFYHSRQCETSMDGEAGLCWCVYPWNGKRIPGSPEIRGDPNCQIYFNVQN
# B1: IGFBP-1 purified from amniotic fluid: 28 kDa IGF-binding protein purified from human amniotic fluid (protein, UniProt P08833 26-259, looked up)
# Insulin-like growth …: T1 sequence (P08833 26-259)
# B2: azurocidin: protein from granules of human polymorphonuclear leukocytes, SEQ ID NO. 1; identified here as IGFBP-1 specific protease (protein, listed as Homo sapiens)
# chain: IVGGRKARPRQFPFLASIQNQGRHFCGGALIHARFVMTAASCFQSQNPGVSTVVLGAYDLRRRERQSRQTFSISSMSENGYDPQQNLNDLMLLQLDREANLTSSVTILPLPLQNATVEAGTRCQVAGWGSQRSGGRLSRFPRFVNVTVTPEDQCRPNNVCTGVLTRRGGICNGDGGTPLVCEGLAHGVASFSLGPCGRGPDFFTRVALFRDWIDGVLNNPGPGPA
# Tests used:
# IGF-I = IGF-I (Homo sapiens, UniProt P05019); settings: IGFBP-1 purified from amniotic fluid; cited from earlier work
# IGF-II = IGF-II (Homo sapiens, UniProt P01344); settings: IGFBP-1 purified from amniotic fluid; cited from earlier work
# IGFBP-1 = molecular target: T1, IGFBP-1; assay: Azurocidin-dependent IGFBP-1 protease activity (SDS-PAGE, ECL or silver staining); type: biochemical
# Protocol: Recombinant phosphorylated IGFBP-1 was used as substrate and incubations were carried out under neutral conditions for 2 h at 37 C. IGFBP-1 fragments were separated on SDS-PAGE, and detected by ECL as described in the methods. Panel A: Incubations with 0.25 μL eluate (HE) from heparin affinity chromatography (50 μl urine equiv.) in the presence and absence of anti-azurocidin antibody; and 1 μl HE of the loading material (L), and the flow through after affinity chromatography on protein G columns without (G) and with bound anti-chymase (C) or anti-azurocidin (A) antibodies. Panel B: Incubations in the presence and absence of 25 ng anti-azurocidin antibody with increasing volumes of white cell extract from the individual with a specific IGFBP-1 protease in urine compared to the white cell extract pooled from 6 healthy subjects;
# Recombinant IGFBP-1 was incubated with the eluate from heparin affinity chromatography (HE) with a ratio of azurocidin:BP-1 of 1:3,500. After the times indicated, proteins were detected by silver staining after SDS-PAGE;
# Gels were fixed, dried and analysed with the Fuji PhosphoImage program (Fuji Co., Stockholm, Sweden). Biotinylated IGFBP-1 and its fragments were separated on 14% SDS-PAGE under reducing conditions, transferred to PVDF (Biorad, Sundbyberg, Sweden), incubated with neutravidin-horseradish peroxidase (Pierce Biotechnology Inc, Rochester, Ill.) and detected by ECL (Amersham Biosciences, Uppsala, Sweden). Silver staining of proteins and fragments was performed after denaturing 12% PAGE under reducing conditions (SilverQuest and NuPAGE, Invitrogen, Stockholm, Sweden).
# Heparin affinity chromatography was carried out in batches using heparin-agarose gel (Pharmacia). Urine was diluted 1:5 in 10 mM sodium phosphate, with 0.25 M NaCl buffer, pH 7 and incubated with gel for 30 min at 4 C. The gel was transferred to a column and washed with 10 times the gel volume of buffer. Heparin binding proteins were eluted in loading buffer containing 2M NaCl and the eluate was desalted, concentrated using a 10 kDa spin column and stored at −80 C. Concentrated material derived from 700 ml urine were applied to C4 reverse-phase HPLC, in 0.1% TFA on an acetonitrile gradient of 0-100%. Immunoaffinity chromatography was performed using monoclonal anti-azurocidin antibody attached to protein G Sepharose (Sigma-Aldrich, Sweden). In brief, antibody bound gel was incubated with the eluate from heparin affinity chromatography for 2 h at 22 C, and transferred to a Bio-Spin chromatography column (BioRad). The flow-through was collected for analysis of protease activity. As controls, an additional column was prepared with a monoclonal antibody against human mast cell chymase and a second column with no bound antibody.
# monocyte = settings: cited from earlier work
# [1] = pH increased from 5.5 to 6.5; cited from earlier work
# IGF-II, sequence (P01344 25-91): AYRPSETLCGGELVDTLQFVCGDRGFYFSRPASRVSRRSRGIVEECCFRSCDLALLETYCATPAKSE
# IGF-I, sequence (P05019 49-118): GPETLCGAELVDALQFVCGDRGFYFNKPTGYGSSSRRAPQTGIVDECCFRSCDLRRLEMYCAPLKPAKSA
molecule,measurement,setting,value
B1,association constant for IGF-I,IGF-I,approximately 6.6×10^9 L/mol
same,association constant for IGF-II,IGF-II,~3.2e+09 L/mol
B2,pH above which action on IGFBP-1 is greater,IGFBP-1,> 6
same,effect on IGFBP-1 (proteolysis) after HPLC-passage,IGFBP-1; after reverse-phase HPLC,without effect
same,time until proteolysis of phosphorylated IGFBP-1 is seen,"IGFBP-1; protease:substrate molar ratio 1:3,500",within minutes
same,concentration at which proteolytic effect on IGFBP-1 is noticeable,IGFBP-1; purified preparation,nanomolar
same,concentration level required for monocyte chemotaxis,monocyte,micromolar
same,decrease of bactericidal activity,[1],at least 50%
